These results are taken from patent US8536113B2, “EGFR binding peptides and uses thereof” (Janssen Biotech, Inc., priority 2006, dated 2013).

This assay addresses T1, sEGFR-MMB (Homo sapiens, UniProt P00533).
T1 construct: made in house; host or cells: Human Embryonic Kidney cells (293E)
In words: Phage ELISA screening of panning hits. The class given is binding. To be noted: phage clone culture supernatant; background typically <200 units. As for the experimental part: Phage Screening. Individual phage clones from selections were amplified and screened for EGFR binding by phage ELISA. To amplify pIII phage for screening, phage eluates from round 3 were diluted appropriately and plated with a lawn of XL-1 Blue to yield isolated single plaques. 24 plaques from each pool were picked and inoculated into a culture of XL-1 Blue host cells. The cultures were shaken at 37° C. for 4.5 hr and the cells were removed by centrifugation. To amplify pIX-displaying phagemid clones, phage eluates were infected into XL-1 Blue and plated onto LB-ampicillin plates. Individual colonies were cultured in 1 ml volumes and rescued with VCS-M13 helper phage. Bacterial cells were removed from phage cultures by centrifugation at (2250×g, 7 min) and the phage-containing supernatant was saved.
The protein solution was removed and wells were rinsed twice with Tris-Buffered Saline containing 0.05% Tween-20 (TBS-T) using a plate washer (Embla). The wells were blocked with Starting Block in TBS for 1 hr at room temperature and rinsed twice with TBS-T. An equal volume of phage supernatant and Starting Block in TBS were incubated in the wells for 1 hr at room temperature, and the wells were rinsed five times with TBS-T. Anti-M13/horseradish peroxidase conjugate (Amersham), diluted 1:5000 in Starting Block in TBS, was added into the wells and incubated for 1 hour at room temperature, and then the wells were rinsed five times with TBS-T. Finally, chemiluminescent peroxidase substrate (Roche) was added to the wells, and chemiluminescence was measured on a Tecan plate reader.
Sequences and ELISA signal (background typically <200 units) are given, along with a consensus sequence, if any. Cysteines that are fixed in the library design are underlined.

Bridges are numbered along the chain shown (N, C = ends). Where no end group is shown, it is not given here.

“10 (YRLFVDESIFFCTRL; S15 library, which displays a random linear 15-mer) [compound 10]” registered an ELISA signal of 3078 units. In the case of “11 (ELGLPTLLCWPTDTL; S15 library, which displays a random linear 15-mer) [compound 11]” it was 9380 units; in that of “12 (VSGILPILVCHPAAT; S15 library, which displays a random linear 15-mer) [compound 12]”, 1107 units; in that of “14 (HVSLQSLPELICVVS; S15 library, which displays a random linear 15-mer) [compound 14]”, 1362 units. Next, “15 (NWFSLPTLLCFPLNP; S15 library, which displays a random linear 15-mer) [compound 15]”: 3669 units; “16 (STITSLPTLQCWPIL; S15 library, which displays a random linear 15-mer) [compound 16]”: 13332 units; “17 (PIDDESLPVLYCVTS; Random peptide) [compound 17]”: 1785 units.

On to “18 (PIFSSLPVLYCTSQL; S15 library, which displays a random linear 15-mer) [compound 18]”, for which the ELISA signal is given as 1425 units. In turn, “19 (GADTLPDLLCWESSL; S15 library, which displays a random linear 15-mer) [compound 19]” yielded an ELISA signal of 5722 units. Next, “20 (TVFTLPELVCVVAGT; S15 library, which displays a random linear 15-mer) [compound 20]”: 1515 units; “21 (LPDLICAVDSGTSGA; S15 library, which displays a random linear 15-mer) [compound 21]”: 1161 units. Next, “23 (AGCIAFVDVVYCAR; Peptide family identified from the S18 library) [compound 23]”: 6377 units. Next, “24 (AKCIAFGNSVYCLN; Peptide family identified from the S18 library) [compound 24]”: 31524 units; “25 (RDCIIFDKTVYCVI; Peptide family identified from the S18 library) [compound 25]”: 17060 units; “26 (KHCILFEKTVYCAK; Peptide family identified from the S18 library) [compound 26]”: 9111 units. On to “27 (DSCIQFANLLYCAI; Peptide family identified from the S18 library) [compound 27]”, for which the ELISA signal is 53162 units. In the case of “28 (TDCIRFGVLWYCLV; Peptide family identified from the S18 library) [compound 28]” it was 4746 units; in that of “29 (RACITFGKVVYCEV; Peptide family identified from the S18 library) [compound 29]”, 30741 units; in that of “30 (AYCSFVAGDLVCQV; Peptide family identified from the S18 library) [compound 30]”, 19792 units. For “31 (TDCVIFGLETYCLR; disulfide 3-12 (inferred)) [compound 31]”, the ELISA signal is recorded as 37925 units. In the case of “32 (SDCVLFGSKLFCSA; families were identified from the S18 library) [compound 32]” it was 35327 units. In the case of “33 (TDCVRFGETIYCIV; Peptide family identified from the S18 library) [compound 33]” it was 13291 units; in that of “34 (YDCVSFGAVAYCPQ; Peptide family identified from the S18 library) [compound 34]”, 3205 units; in that of “35 (RGCVVFGDNIYCIV; Peptide family identified from the S18 library) [compound 35]”, 21963 units.

The substance “37 (MICYLVDSGNIICYK; Peptide family identified from the S19 library) [compound 37]” returned an ELISA signal of 8806 units. In the case of “38 (YDCMIRADGSLICWC; Peptide family identified from the S19 library) [compound 38]” it was 1286 units. “39 (GPCVLIRDYYLLCLE; disulfide 3-13 (inferred)) [compound 39]” yielded an ELISA signal of 13951 units.

In turn, “40 (AFCRLDFNQWLTCLV; Peptide family identified from the S19 library) [compound 40]” had an ELISA signal of 2581 units. With “41 (CDCREAVSASLVCRY; Peptide family identified from the S19 library) [compound 41]”, the ELISA signal was determined as 3347 units. In the case of “43 (PTCDSATRRVLTICAD; Peptide family identified from the S20 library) [compound 43]” it was 5420 units; in that of “44 (WMCFLEGYGASLMCQC; Peptide family identified from the S20 library) [compound 44]”, 4795 units. As for “45 (DSCCSFLTDGTVVCSL; Peptide family identified from the S20 library) [compound 45]”, the ELISA signal was 9544 units. Consider “46 (YICTPSDIDSWYICYL; Peptide family identified from the S20 library) [compound 46]”, for which the ELISA signal is given as 6615 units.

In the case of “47 (SVCVGTAFPGWMVCGP; Peptide family identified from the S20 library) [compound 47]”, the ELISA signal was 4771 units. In the case of “49 (LLCATTSFRDWFVCFT; Peptide family identified from the S20 library) [compound 49]”, the ELISA signal is 4512 units. Take “DACTMVFLWCSL (S16 and S17 hits Phage 177) [P177]”: the ELISA signal worked out at 8655 units. Next, “LPDDSLPELICKVRG (S15 library, which displays a random linear 15-mer) [P175]”: 6790 units; “RWCYFWWITICEL (S16 and S17 hits Phage 178) [P178]”: 7913 units.
